Test results reported in publication PMC7954794, “Protein context shapes the specificity of SH3 domain-mediated interactions in vivo” (Nature Communications, 2021).

B1: YSC84 (protein, UniProt P32793 1-468, looked up)
Protein YSC84: MGINNPIPRSLKSETKKAAKVLRSFVKPNQVFGADQVIPPYVLKRAKGLAIITVLKAGFLFSGRAGSGVIVARLKDGTWSAPSAIAMAGAGAGGMVGVELTDFVFILNSEEAVRSFSEFGTITLGGNVSVSAGPLGRSAEAAASASTGGVSAVFAYSKSKGLFAGVSVEGSAILERREANRKFYGDNCTSKMILSGRVKVPPAADPLLRILESRAFNFTRHDHDDNASGDDFYDDGQYSDNTSHYYDDIPDSFDSTDESSTRPNTRSSRRRGMSLGSRSRYDDDYDDDGYGRGRGYGDFDSEDEDYDYGRSPNRNSSRNRGPQIDRGTKPRANTRWEDDLYDRDTEYSRPNHSGRDYDNTRGNRRGYGRERGYSLGHGPTHPSNMSNVDDLSHKMSKTGLGNESTATNSATPTAVALYNFAGEQPGDLAFKKGDVITILKKSDSQNDWWTGRTNGKEGIFPANYVRVS
B2: BOI1 (protein, UniProt P38041 1-980, looked up)
BEM1-interacting protein 1: MSLEGNTLGKGAKSFPLYIAVNQYSKRMEDELNMKPGDKIKVITDDGEYNDGWYYGRNLRTKEEGLYPAVFTKRIAIEKPENLHKSPTQESGNSGVKYGNLNDSASNIGKVSSHQQENRYTSLKSTMSDIDKALEELRSGSVEQEVSKSPTRVPEVSTPQLQDEQTLIQEKTRNEENTTHDSLFSSTADLNLSSESLKNISKSNISTKSLEPSSESVRQLDLKMAKSWSPEEVTDYFSLVGFDQSTCNKFKEHQVSGKILLELELEHLKELEINSFGIRFQIFKEIRNIKSAIDSSSNKLDADYSTFAFENQAAQLMPAATVNRDEIQQQISSKCNKLSSESSDRKSSSVTTELQRPSSVVVNPNFKLHDPAEQILDMTEVPNLFADKDIFESPGRAPKPPSYPSPVQPPQSPSFNNRYTNNNARFPPQTTYPPKNKNPTVYSNGLIPNSSTSSDNSTGKFKFPAMNGHDSNSRKTTLTSATIPSINTVNTDESLPAISNISSNATSHHPNRNSVVYNNHKRTESGSSFVDLFNRISMLSPVKSSFDEEETKQPSKASRAVFDSARRKSSYGHSRDASLSEMKKHRRNSSILSFFSSKSQSNPTSPTKQTFTIDPAKMTSHSRSQSNSYSHARSQSYSHSRKHSLVTSPLKTSLSPINSKSNIALAHSETPTSSNNKEAVSQPSEGKHKHKHKHKSKHKHKNSSSKDGSSEEKSKKKLFSSTKESFVGSKEFKRSPSELTQKSTKSILPRSNAKKQQTSAFTEGIRSITAKESMQTADCSGWMSKKGTGAMGTWKQRFFTLHGTRLSYFTNTNDEKERGLIDITAHRVLPASDDDRLISLYAASLGKGKYCFKLVPPQPGSKKGLTFTEPRVHYFAVENKSEMKAWLSAIIKATIDIDTSVPVISSYATPTIPLSKAQTLLEEARLQTQLRDAEEEEGRDQFGWDDTQNKRNSNYPIEQDQFETSDYLESSAFEYPGGRL

Test system: Abp1 PPIs
Assay: DHFR-PCA of Abp1 SH3-swapped baits (Fig. 2B-D, S2C, S2F);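 on Protein-protein interaction distance between Abp1 SH3-swapped baits, to ABP1: Euclidean distance between DHFR-PCA score profiles of the baits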;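 on Protein-protein interaction distance between Abp1 SH3-swapped baits, to BEM1-2: Euclidean distance between DHFR-PCA score profiles of the baits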;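 on Protein-protein interaction distance between Abp1 SH3-swapped baits, to BOI1: Euclidean distance between DHFR-PCA score profiles of the baits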;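 on Protein-protein interaction distance between Abp1 SH3-swapped baits, to BZZ1-1: Euclidean distance between DHFR-PCA score profiles of the baits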
Assay type: cell-based, Saccharomyces cerevisiae
Settings: for Protein-protein interaction distance between Abp1 SH3-swapped baits, to ABP1: Abp1 bait with swapped SH3, distance to bait with ABP1 SH3; for Protein-protein interaction distance between Abp1 SH3-swapped baits, to ABP1 / Protein-protein interaction distance between Abp1 SH3-swapped baits, to BBC1 / Protein-protein interaction distance between Abp1 SH3-swapped baits, to BEM1-1 / Protein-protein interaction distance between Abp1 SH3-swapped baits, to BEM1-2 / Protein-protein interaction distance between Abp1 SH3-swapped baits, to BOI1 / Protein-protein interaction distance between Abp1 SH3-swapped baits, to BOI2 / Protein-protein interaction distance between Abp1 SH3-swapped baits, to BUD14 / Protein-protein interaction distance between Abp1 SH3-swapped baits, to BZZ1-1 / Protein-protein interaction distance between Abp1 SH3-swapped baits, to BZZ1-2 / Protein-protein interaction distance between Abp1 SH3-swapped baits, to CDC25 / Protein-protein interaction distance between Abp1 SH3-swapped baits, to CTTN / Protein-protein interaction distance between Abp1 SH3-swapped baits, to CYK3 / Protein-protein interaction distance between Abp1 SH3-swapped baits, to DBNL / Protein-protein interaction distance between Abp1 SH3-swapped baits, to FUS1 / Protein-protein interaction distance between Abp1 SH3-swapped baits, to HCLS1 / Protein-protein interaction distance between Abp1 SH3-swapped baits, to HOF1 / Protein-protein interaction distance between Abp1 SH3-swapped baits, to HSE1 / Protein-protein interaction distance between Abp1 SH3-swapped baits, to LSB1 / Protein-protein interaction distance between Abp1 SH3-swapped baits, to LSB3 / Protein-protein interaction distance between Abp1 SH3-swapped baits, to MYO3 / Protein-protein interaction distance between Abp1 SH3-swapped baits, to MYO5 / Protein-protein interaction distance between Abp1 SH3-swapped baits, to NBP2 / Protein-protein interaction distance between Abp1 SH3-swapped baits, to PEX13 / Protein-protein interaction distance between Abp1 SH3-swapped baits, to PIN3 / Protein-protein interaction distance between Abp1 SH3-swapped baits, to RVS167 / Protein-protein interaction distance between Abp1 SH3-swapped baits, to SDC25 / Protein-protein interaction distance between Abp1 SH3-swapped baits, to SHO1 / Protein-protein interaction distance between Abp1 SH3-swapped baits, to SLA1-1 / Protein-protein interaction distance between Abp1 SH3-swapped baits, to SLA1-2 / Protein-protein interaction distance between Abp1 SH3-swapped baits, to SLA1-3 / Protein-protein interaction distance between Abp1 SH3-swapped baits, to YSC84: sheet Fig2C; for Protein-protein interaction distance between Abp1 SH3-swapped baits, to BBC1: distance to Abp1 bait with BBC1 SH3; for Protein-protein interaction distance between Abp1 SH3-swapped baits, to BEM1-1: distance to Abp1 bait with BEM1-1 SH3; for Protein-protein interaction distance between Abp1 SH3-swapped baits, to BEM1-2: distance to Abp1 bait with BEM1-2 SH3; for Protein-protein interaction distance between Abp1 SH3-swapped baits, to BOI1: distance to Abp1 bait with BOI1 SH3; for Protein-protein interaction distance between Abp1 SH3-swapped baits, to BOI2: distance to Abp1 bait with BOI2 SH3; for Protein-protein interaction distance between Abp1 SH3-swapped baits, to BUD14: distance to Abp1 bait with BUD14 SH3; for Protein-protein interaction distance between Abp1 SH3-swapped baits, to BZZ1-1: distance to Abp1 bait with BZZ1-1 SH3; for Protein-protein interaction distance between Abp1 SH3-swapped baits, to BZZ1-2: distance to Abp1 bait with BZZ1-2 SH3; for Protein-protein interaction distance between Abp1 SH3-swapped baits, to CDC25: distance to Abp1 bait with CDC25 SH3; for Protein-protein interaction distance between Abp1 SH3-swapped baits, to CTTN: distance to Abp1 bait with CTTN SH3; for Protein-protein interaction distance between Abp1 SH3-swapped baits, to CYK3: distance to Abp1 bait with CYK3 SH3; for Protein-protein interaction distance between Abp1 SH3-swapped baits, to DBNL: distance to Abp1 bait with DBNL SH3; for Protein-protein interaction distance between Abp1 SH3-swapped baits, to FUS1: distance to Abp1 bait with FUS1 SH3; for Protein-protein interaction distance between Abp1 SH3-swapped baits, to HCLS1: distance to Abp1 bait with HCLS1 SH3; for Protein-protein interaction distance between Abp1 SH3-swapped baits, to HOF1: distance to Abp1 bait with HOF1 SH3; for Protein-protein interaction distance between Abp1 SH3-swapped baits, to HSE1: distance to Abp1 bait with HSE1 SH3; for Protein-protein interaction distance between Abp1 SH3-swapped baits, to LSB1: distance to Abp1 bait with LSB1 SH3; for Protein-protein interaction distance between Abp1 SH3-swapped baits, to LSB3: distance to Abp1 bait with LSB3 SH3; for Protein-protein interaction distance between Abp1 SH3-swapped baits, to MYO3: distance to Abp1 bait with MYO3 SH3; for Protein-protein interaction distance between Abp1 SH3-swapped baits, to MYO5: distance to Abp1 bait with MYO5 SH3; for Protein-protein interaction distance between Abp1 SH3-swapped baits, to NBP2: distance to Abp1 bait with NBP2 SH3; for Protein-protein interaction distance between Abp1 SH3-swapped baits, to PEX13: distance to Abp1 bait with PEX13 SH3; for Protein-protein interaction distance between Abp1 SH3-swapped baits, to PIN3: distance to Abp1 bait with PIN3 SH3; for Protein-protein interaction distance between Abp1 SH3-swapped baits, to RVS167: distance to Abp1 bait with RVS167 SH3; for Protein-protein interaction distance between Abp1 SH3-swapped baits, to SDC25: distance to Abp1 bait with SDC25 SH3; for Protein-protein interaction distance between Abp1 SH3-swapped baits, to SHO1: distance to Abp1 bait with SHO1 SH3; for Protein-protein interaction distance between Abp1 SH3-swapped baits, to SLA1-1: distance to Abp1 bait with SLA1-1 SH3; for Protein-protein interaction distance between Abp1 SH3-swapped baits, to SLA1-2: distance to Abp1 bait with SLA1-2 SH3; for Protein-protein interaction distance between Abp1 SH3-swapped baits, to SLA1-3: distance to Abp1 bait with SLA1-3 SH3; for Protein-protein interaction distance between Abp1 SH3-swapped baits, to YSC84: distance to Abp1 bait with YSC84 SH3
Method in brief: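 Yeast DHFR-PCA in which Abp1 baits, carrying their SH3 replaced by CRISPR–Cas9 with one of 27 yeast SH3s or human CTTN, HCLS1 or DBNL SH3s, were mated against 575 SH3-associated DHFR F[3] preys plus 40 negative controls. Four tests were run per PPI. Diploids were selected twice (48 h, 30 °C), then grown 4 days on PCA selection media.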

[1] = number of PPIs, difference, Abp1 SH3-swapped with the listed SH3, Fig2D,S2F

| Molecule | Protein-protein interaction distance between Abp1 SH3-swapped baits, to ABP1 | Protein-protein interaction distance between Abp1 SH3-swapped baits, to BBC1 | Protein-protein interaction distance between Abp1 SH3-swapped baits, to BEM1-1 | Protein-protein interaction distance between Abp1 SH3-swapped baits, to BEM1-2 | Protein-protein interaction distance between Abp1 SH3-swapped baits, to BOI1 | Protein-protein interaction distance between Abp1 SH3-swapped baits, to BOI2 | Protein-protein interaction distance between Abp1 SH3-swapped baits, to BUD14 | Protein-protein interaction distance between Abp1 SH3-swapped baits, to BZZ1-1 | Protein-protein interaction distance between Abp1 SH3-swapped baits, to BZZ1-2 | Protein-protein interaction distance between Abp1 SH3-swapped baits, to CDC25 | Protein-protein interaction distance between Abp1 SH3-swapped baits, to CTTN | Protein-protein interaction distance between Abp1 SH3-swapped baits, to CYK3 | Protein-protein interaction distance between Abp1 SH3-swapped baits, to DBNL | Protein-protein interaction distance between Abp1 SH3-swapped baits, to FUS1 | Protein-protein interaction distance between Abp1 SH3-swapped baits, to HCLS1 | Protein-protein interaction distance between Abp1 SH3-swapped baits, to HOF1 | Protein-protein interaction distance between Abp1 SH3-swapped baits, to HSE1 | Protein-protein interaction distance between Abp1 SH3-swapped baits, to LSB1 | Protein-protein interaction distance between Abp1 SH3-swapped baits, to LSB3 | Protein-protein interaction distance between Abp1 SH3-swapped baits, to MYO3 | also measured |
| --- | --- | --- | --- | --- | --- | --- | --- | --- | --- | --- | --- | --- | --- | --- | --- | --- | --- | --- | --- | --- | --- |
| B1 | 13.97 | 14.14 | 19.6 | 36.26 | 16.61 | 20.04 | 22.52 | 11.3 | 16.58 | 30.76 | 17.19 | 31.42 | 11.44 | 23.88 | 11.3 | 34.92 | 12.83 | 3.911 | 3.425 | 9.995 | Protein-protein interaction distance between Abp1 SH3-swapped baits, to MYO5: 8.128; Protein-protein interaction distance between Abp1 SH3-swapped baits, to NBP2: 21.76; Protein-protein interaction distance between Abp1 SH3-swapped baits, to PEX13: 7.848; Protein-protein interaction distance between Abp1 SH3-swapped baits, to PIN3: 5.862; Protein-protein interaction distance between Abp1 SH3-swapped baits, to RVS167: 8.283; Protein-protein interaction distance between Abp1 SH3-swapped baits, to SDC25: 36.86; Protein-protein interaction distance between Abp1 SH3-swapped baits, to SHO1: 12.33; Protein-protein interaction distance between Abp1 SH3-swapped baits, to SLA1-1: 33.18; Protein-protein interaction distance between Abp1 SH3-swapped baits, to SLA1-2: 24.17; Protein-protein interaction distance between Abp1 SH3-swapped baits, to SLA1-3: 6.014; Protein-protein interaction distance between Abp1 SH3-swapped baits, to YSC84: 0.00 |
| B2 | 11.59 | 9.448 | 8.19 | 28.06 | 0.00 | 6.71 | 11.14 | 8.863 | 6.782 | 21 | 8.701 | 21.68 | 8.616 | 12.53 | 12.36 | 26.74 | 7.847 | 16.11 | 16.12 | 14.63 | Protein-protein interaction distance between Abp1 SH3-swapped baits, to MYO5: 14.33; Protein-protein interaction distance between Abp1 SH3-swapped baits, to NBP2: 10.48; Protein-protein interaction distance between Abp1 SH3-swapped baits, to PEX13: 13.22; Protein-protein interaction distance between Abp1 SH3-swapped baits, to PIN3: 13.58; Protein-protein interaction distance between Abp1 SH3-swapped baits, to RVS167: 11.58; Protein-protein interaction distance between Abp1 SH3-swapped baits, to SDC25: 29.16; Protein-protein interaction distance between Abp1 SH3-swapped baits, to SHO1: 8.152; Protein-protein interaction distance between Abp1 SH3-swapped baits, to SLA1-1: 23.94; Protein-protein interaction distance between Abp1 SH3-swapped baits, to SLA1-2: 13.51; Protein-protein interaction distance between Abp1 SH3-swapped baits, to SLA1-3: 15.75; Protein-protein interaction distance between Abp1 SH3-swapped baits, to YSC84: 16.61; PPIs gained by Abp1 - SH3-dependent PPIs gained by Abp1 [1]: 1; SH3-dependent PPIs - SH3-dependent PPIs gained by Abp1 [1]: 2; SH3-dependent PPIs gained by Abp1 (number of PPIs, Abp1 SH3-swapped with the listed SH3, DHFR-PCA, Fig2D,S2F): 1 |
